The source of these data is publication PMC5720831.

In general, Kd refers to a measure of binding affinity in units of concentration. A higher Kd goes with lower affinity.

This assay concerns the target biotinylated Mtb DnaB (Mycobacterium tuberculosis). Description: BLI; Octet RED96; 200 nM biotinylated DnaB loaded on streptavidin biosensors, DciAMtb in solution at varying concentrations, 300 s association and 300 s dissociation; 150 mM NaCl, 0.02% Tween-20, 0.1% BSA, 10 mM NaPO4 pH 8; double reference subtracted; global fit, 1:1 kinetic binding model. On the technique in general: BLI is a label-free optical method that tracks binding on a fibre tip over time.

“DciAMtb, purified recombinant, untagged (from UniProt P9WFL1 1-187) (natural protein)”: the Kd worked out at 211 nM.
